Source: patent US20260062487A1 (GRITSTONE BIO, published 2026)

Assays:
[1] = target: T1, biotinylated refolded A*01:01/b2m with … (alanine at position 9) (human, UniProt P61769 21-119); experiment: BLI (Octet), biotinylated pHLA on streptavidin sensor
Experimental: (§1) All the assay conditions were prepared in a volume of 200 μL. The pHLA complex biotinylated at the C-terminal AviTag was used to ensure uniform directionality of the protein. […] Using the ForteBio Data Analysis suite, the data was normalized to the association curves followed by background normalization. Curve fitting using global fitting of the sensor data with the Octet™ software using 1:1 kinetic model with errors within 10%, X2below 3, and R2above 0.9 to determine the association and dissociation constants.

[2] = target: biotinylated refolded A*01:01/b2m with … (Ala 5) (human, UniProt P61769 21-119); experiment: BLI (Octet), biotinylated pHLA on streptavidin sensor, antibody as analyte;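 note: pHLA biotinylated through a C-terminal AviTag for uniform orientation, sensor data background-normalized, rate constants from global 1:1 kinetic fitting in Octet software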
Experimental: as §1

[3] = target: biotinylated refolded A*01:01/b2m with … (Ala 2) (human, UniProt P61769 21-119); experiment: as above
Experimental: as §1

[4] = target: T1, biotinylated refolded A*01:01/b2m with …; experiment: as above
Experimental: as §1

[5] = target: biotinylated refolded A*01:01/b2m with … (Ala 4) (human, UniProt P61769 21-119); experiment: as above
Experimental: as §1

[6] = target: T2, biotinylated refolded G2-pHLA (A*01:01/b2m/…) (human, biotinylated at the C-terminal AviTag); experiment: as above
T2 construct: Soluble complex caught on streptavidin sensors or MSD plates; also called G2-peptide A*01:01/b2m complex; WT
Experimental: as §1

[7] = target: biotinylated refolded A*01:01/b2m with […] (Ala 3) (human, UniProt P61769 21-119, biotinylated at the C-terminal AviTag); experiment: as above
Experimental: as §1

[8] = target: biotinylated refolded A*01:01/b2m with … (Ala 6) (human, UniProt P61769 21-119); experiment: as above
Experimental: as §1

[9] = target: biotinylated refolded A*01:01/b2m with … (alanine at position 8) (human, UniProt P61769 21-119); experiment: as above
Experimental: as §1

[10] = target: biotinylated refolded A*01:01/b2m with … (Ala 1) (human, UniProt P61769 21-119); experiment: as above
Experimental: as §1

B1: monovalent Format 3-E07-hOKT3a antibody (bispecific antibody, V domains shown)
VH 1: QVQLVQSGAEVKKPGASVKVSCKASGFTFTNYLIHWVRQAPGQGLEWMGWINPNSGGTNYAQRLQGRVTMTRDTSTSTVYMELSSLRSEDTAVYYCARDYGAGNDYWGQGTLVTVSS
VL 1: DIQMTQSPSSLSASVGDRVTITCRASQEIRRWLAWYQQKPGKAPKLLIYAASNLQSGVPSRFSGSGSGTDFTLTISSLQPEDFATYYCQQSYSTPYTFGQGTKLEIK
VH 2: QVQLVQSGAEVKKPGASVKVSCKASGYTFTRYTMHWVRQAPGQGLEWMGYINPSRGYTNYNQKFKDRVTLTTDKSSSTAYMELSSLRSEDTAVYYCARYYDDHYSLDYWGQGTLVTVSS
VL 2: DIQMTQSPSSLSASVGDRVTITCSASSSVSYMNWYQQKPGKAPKRLIYDTSKLASGVPSRFSGSGSGTDFTLTISSLQPEDFATYYCQQWSSNPFTFGQGTKLEIK
binding result [1]: no binding (tested: typically 500-0 nM antibody) | Fold change in affinity (against WT) [2]: 13.3 fold | Kd [2]: 16 nM | Max Response (nm) [2]: 0.21 nm | Kd [3]: 1.5 nM | Max Response (nm) [3]: 0.24 nm | Max Response (nm) [4]: 0 nm | Fold change in affinity (against WT) [5]: 7.3 fold | Kd [5]: 8.7 nM | Max Response (nm) [5]: 0.24 nm | Kd [6]: 1.2 nM | Max Response (nm) [6]: 0.24 nm | Fold change in Response (against WT) [7]: 1.6 fold | Fold change in affinity (against WT) [7]: 14.2 fold | Kd [7]: 17 nM | Max Response (nm) [7]: 0.15 nm | Fold change in Response (against WT) [8]: 2.7 fold | Fold change in affinity (against WT) [8]: 13.3 fold | Kd [8]: 16 nM | Max Response (nm) [8]: 0.09 nm | Fold change in affinity (against WT) [9]: 6.7 fold | Kd [9]: 8 nM | Max Response (nm) [9]: 0.24 nm | Fold change in affinity (against WT) [10]: 2.5 fold | Kd [10]: 3 nM | Max Response (nm) [10]: 0.26 nm
